The results in this text go back to PMC6443806 (Scientific Reports, 2019).

One series concerns the target His54 (UniProt position 515, KNAVRHNLSLA). In words: stability (GdmCl equilibrium unfolding followed by intrinsic Trp fluorescence) with Wyman-Tanford linkage analysis. Particulars: 37 °C, Not stated for the unfolding buffer (standard buffer contains 150 mM NaCl). GdmCl 0-6 M in the unfolding series., buffer at different pH values (composition not restated; standard buffer is 20 mM HEPES, 150 mM NaCl, 2 mM β-mercaptoethanol) supplemented with GdmCl, DNA-free.

The target in series [1] is T1, His59 (UniProt position 520, HNLSLHKCFVR). In words: kinetics (SEC-monitored dimer dissociation) with Wyman-Tanford linkage analysis. The conditions noted are these: 37 °C, 150 mM NaCl, standard buffer (20 mM HEPES, 150 mM NaCl, 2 mM β-mercaptoethanol) adjusted to different pH values, DNA-free.
Series [2] deals with T1, His59. In words: stability (GdmCl equilibrium unfolding followed by intrinsic Trp fluorescence) with Wyman-Tanford linkage analysis. Particulars: 37 °C, Not stated for the unfolding buffer (standard buffer contains 150 mM NaCl). GdmCl 0-6 M in the unfolding series., buffer at different pH values (composition not restated; standard buffer is 20 mM HEPES, 150 mM NaCl, 2 mM β-mercaptoethanol) supplemented with GdmCl, DNA-free.

The target in series [3] is forkhead domain of human FoxP1, H59A mutant (human). In words: SEC; isolated dimer diluted to 5 μM in standard buffer (20 mM HEPES, 150 mM NaCl, 2 mM β-mercaptoethanol) at pH 5.0, 37 °C, aliquots over 2 h on Superdex 75; dimer to monomers; Kd from the equilibrium dimer fraction, koff from a single exponential decay, kon derived from Kd = koff/kon.
The target is the same in series [4]. In words: SEC; isolated dimer diluted to 5 μM in standard buffer (20 mM HEPES, 150 mM NaCl, 2 mM β-mercaptoethanol) at pH 6.0, 37 °C, aliquots over 2 h on Superdex 75; dimer to monomers; Kd from the equilibrium dimer fraction, koff from a single exponential decay, kon derived from Kd = koff/kon. On the technique in general: SEC sorts molecules by how far they enter the pores of the column.

The target is the same in series [5]. In words: SEC; isolated dimer diluted to 5 μM in standard buffer (20 mM HEPES, 150 mM NaCl, 2 mM β-mercaptoethanol) at pH 7.8, 37 °C, aliquots over 2 h on Superdex 75; dimer to monomers; Kd from the equilibrium dimer fraction, koff from a single exponential decay, kon derived from Kd = koff/kon.
Series [6] concerns the molecule itself. In words: SEC; isolated dimer diluted to 5 μM in standard buffer (20 mM HEPES, 150 mM NaCl, 2 mM β-mercaptoethanol) at pH 5.0, 37 °C, aliquots over 2 h on Superdex 75; dimer to monomers; Kd from the equilibrium dimer fraction, koff from a single exponential decay, kon derived from Kd = koff/kon.
Series [7] concerns the molecule itself. In words: SEC; isolated dimer diluted to 5 μM in standard buffer (20 mM HEPES, 150 mM NaCl, 2 mM β-mercaptoethanol) at pH 5.5, 37 °C, aliquots over 2 h on Superdex 75; dimer to monomers; Kd from the equilibrium dimer fraction, koff from a single exponential decay, kon derived from Kd = koff/kon.
Series [8] concerns the molecule itself. Put plainly: SEC; isolated dimer diluted to 5 μM in standard buffer (20 mM HEPES, 150 mM NaCl, 2 mM β-mercaptoethanol) at pH 6.0, 37 °C, aliquots over 2 h on Superdex 75; dimer to monomers; Kd from the equilibrium dimer fraction, koff from a single exponential decay, kon derived from Kd = koff/kon.
Series [9] deals with the molecule itself. Put plainly: SEC; isolated dimer diluted to 5 μM in standard buffer (20 mM HEPES, 150 mM NaCl, 2 mM β-mercaptoethanol) at pH 7.0, 37 °C, aliquots over 2 h on Superdex 75; dimer to monomers; Kd from the equilibrium dimer fraction, koff from a single exponential decay, kon derived from Kd = koff/kon.
Series [10] deals with the molecule itself. In words: SEC; isolated dimer diluted to 5 μM in standard buffer (20 mM HEPES, 150 mM NaCl, 2 mM β-mercaptoethanol) at pH 7.8, 37 °C, aliquots over 2 h on Superdex 75; dimer to monomers; Kd from the equilibrium dimer fraction, koff from a single exponential decay, kon derived from Kd = koff/kon.
Where [11] appears, read: monomeric folding intermediate (I).

For “Forkhead box protein P1 (FoxP1), forkhead DNA-binding domain, H59A mutant (Homo sapiens; H59A)”, the results for the pKa with His54 (setting [11]) and with His54 (unfolded state (U)) were 5.3 and 5.9, respectively.

Take “Forkhead box protein P1 (FoxP1), forkhead DNA-binding domain, wild type (Homo sapiens)”: the pKa came to 5.5 in the series with His59 [1] (domain-swapped dimer (D)); 7.3 with His59 [1] (monomer (M)); 5.5 with His59 [1] (transition state (‡) for domain swapping); 5.7 with His59 [2] (setting [11]); 7.7 in the series with His59 [2] (unfolded state (U)).

In [3], “forkhead domain of human FoxP1, H59A mutant (domain or fragment)” came in with a dissociation constant (Kd) of 7.9 µM, a koff of 0.000988 s⁻¹ and a kon of 125 M⁻¹ s⁻¹. Further, in series [4], the Kd was found to be 5.9 µM, the koff stood at 0.000628 s⁻¹ and the kon was found to be 107 M⁻¹ s⁻¹. In series [5], this molecule showed a Kd of 7.5 µM, a koff of 0.000723 s⁻¹ and a kon of 96.7 M⁻¹ s⁻¹.

B1: forkhead domain of human FoxP1, wild type (domain or fragment)
chain: AEVRPPFTYASLIRQAILESPEKQLTLNEIYNWFTRMFAYFRRNAATWKNAVRHNLSLHKCFVRVENVKGAVWTVDEVEFQKRRPQK
In the case of B1, the Kd in [6] was determined as 31.2 ± 0.3 µM; in [7], 13.1 ± 0.2 µM; in series [8], 3.7 ± 0.3 µM; in [9] it was 0.8 ± 0.1 µM; in series [10] it was 0.6 ± 0.1 µM. For the same molecule, the koff in series [6] was 0.00235 s⁻¹; in series [7], 0.000675 s⁻¹; in series [8] it was 0.000553 s⁻¹; in [9], 0.00113 s⁻¹; in [10] it was 0.00106 s⁻¹. Also, the kon in series [6] turned out to be 58.3 M⁻¹ s⁻¹; in series [7], 51.7 M⁻¹ s⁻¹; in series [8] it was 150 M⁻¹ s⁻¹; in series [9], 1340 M⁻¹ s⁻¹; in series [10] it was 1790 M⁻¹ s⁻¹.

Broadly, the pKa is the pH at which an ionisable group is half protonated. The low end stands for a stronger acid or weaker base, the high end for a weaker acid or stronger base. Broadly, the Kd is the free concentration of one partner at which half of the binding sites on the other are occupied at equilibrium, for simple one-to-one binding. Usually koff stands for the first-order rate constant of dissociation. Low values mean slow dissociation, high ones fast dissociation. One may read the kon as the second-order rate constant of association.
